Laboratory results: the supplement of paper PMC6757056
± gives the standard deviation of the averaged measurements.

B1: library; a variant is named by its letters at N, in order (parent)
chain: GCUGUCACCGGUGUAUUACCCUAGUGGUCGACCGGUCUGAUGAGUCUNNNNNNAGACGAAACAGC

Tests used:
[1] = variants of: B1; experiment: FACS-Seq fitted mean relative fluorescence mCherry/BFP without ligand (log10 relative fluorescence); ligand: hypoxanthine (xanthine aptamer); higher = higher reporter protein expression; conditions: HEK293T, ligand present: no
How it was run: (§1)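 The ribozyme switch sat in an mCherry reporter, delivered by lentivirus into HEK293T libraries along with an EF1α-BFP marker. Enriched cells were incubated 48 h with or without ligand, sorted into 6 bins by mCherry/BFP, and bin genomic DNA was PCR-amplified, barcoded and MiSeq-sequenced. Fluorescence equals the fitted normal mean of the bin counts after normalization. Those log10(mCherry/BFP) means were scaled to five spiked-in control ribozymes.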

[2] = variants of: B1; experiment: normalized RNA/DNA level with ligand (relative to sTRSVctl = 100) (log10 (% of sTRSVctl)); ligand: hypoxanthine (xanthine aptamer); higher = less ribozyme self-cleavage, higher mRNA level; conditions: ligand concentration (+) RNA-Seq: 5 mM, HEK293T, reporter: mCherry (pCS4076), ligand present: yes
Experimental: (§2)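 Hammerhead (sTRSV) ribozyme switch libraries with a ligand aptamer grafted on stem I and a randomized N4-6 loop II, cloned into the 3' UTR of mCherry and transiently transfected into HEK293T cells; RNA-Seq 72 h post transfection with ligand added 1 h before transfection; RNA read count / plasmid DNA read count normalized to the non-cleaving sTRSVctl (x100), log10; sequences with >100 DNA reads. FACS-Seq: lentiviral library sorted into 6 bins after 48 h ligand, log-normal fit mean of mCherry/BFP scaled to controls. Printed sequences are partial switch sequences.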

[3] = variants of: B1; experiment: normalized RNA/DNA level without ligand (relative to sTRSVctl = 100) (log10 (% of sTRSVctl)); ligand: hypoxanthine (xanthine aptamer); higher = less ribozyme self-cleavage, higher mRNA level; conditions: HEK293T, reporter: mCherry (pCS4076), ligand present: no
Experimental: as §2

[4] = variants of: B1; experiment: FACS-Seq fitted mean relative fluorescence mCherry/BFP with ligand (log10 relative fluorescence); ligand: hypoxanthine (xanthine aptamer); ligand concentration (+) FACS-Seq: 5 mM; higher = higher reporter protein expression; conditions: HEK293T, ligand present: yes
How it was run: as §1

Variant | FACS-Seq fitted mean (log10) [1] | normalized RNA/DNA level with ligand (log10) [2] | normalized RNA/DNA level without ligand (log10) [3] | FACS-Seq fitted mean (log10) [4]
CACCGA | 0.374 ± 0.048 | 1.94 ± 0.0088 | 1.8 ± 0.038 | 0.516 ± 0.011
AACUCG | 0.382 ± 0.056 | 1.92 ± 0.033 | 1.582 ± 0.0054 | 0.644 ± 0.022
CACGGU | 0.663 ± 0.025 | 1.869 ± 0.0027 | 1.758 ± 0.0045 | 0.669 ± 0.15
UACCUG | -0.0249 ± 0.053 | 1.93 ± 0.024 | 1.635 ± 0.012 | 0.0984 ± 0.069
UACCUA | 0.48 ± 0.072 | 1.93 ± 0.0042 | 1.921 ± 0.019 | 0.369 ± 0.023
AAGAUA | 0.32 ± 0.064 | 1.89 ± 0.031 | 1.63 ± 0.022 | 0.339 ± 0.1
AAGAUC | 0.614 ± 0.031 | 1.973 ± 0.0076 | 1.92 ± 0.043 | 0.556 ± 0.033
AAGAUU | -0.294 ± 0.047 | 1.9382 ± 0.00039 | 1.805 ± 0.016 | 0.11 ± 0.042
AAGAUG | 0.0294 ± 0.013 | 1.64 ± 0.087 | 1.09 ± 0.045 | 0.578 ± 0.025
CAGACA | 0.574 ± 0.043 | 1.96 ± 0.032 | 1.75 ± 0.045 | 0.74 ± 0.064
UACGGC | 0.35 ± 0.0036 | 1.95 ± 0.0066 | 1.795 ± 0.0028 | 0.542 ± 0.1
UACGGA | 0.543 ± 0.045 | 1.927 ± 0.0098 | 1.59 ± 0.03 | 0.703 ± 0.039
UACGGG | 0.0501 ± 0.0033 | 1.928 ± 0.0024 | 1.509 ± 0.013 | 0.553 ± 0.062
GACUAU | 0.185 ± 0.051 | 1.92 ± 0.077 | 1.829 ± 0.016 | 0.377 ± 0.004
GACUAA | 0.354 ± 0.073 | 1.89 ± 0.027 | 1.796 ± 0.0046 | 0.515 ± 0.01
GACCGU | 0.658 ± 0.04 | 1.933 ± 0.0015 | 1.91 ± 0.0056 | 0.698 ± 0.013
GACCCG | 0.0296 ± 0.027 | 1.89 ± 0.022 | 1.632 ± 0.016 | 0.292 ± 0.047
GACCCU | -0.308 ± 0.41 | 1.99 ± 0.023 | 1.972 ± 0.0096 | 0.1808 ± 0.00023

Variant | FACS-Seq fitted mean (log10) [1] | normalized RNA/DNA level with ligand (log10) [2] | normalized RNA/DNA level without ligand (log10) [3] | FACS-Seq fitted mean (log10) [4]
GACCCC | 0.0047 ± 0.072 | 1.94 ± 0.019 | 1.87 ± 0.038 | 0.161 ± 0.06
GACUGG | 0.157 ± 0.015 | 1.758 ± 0.0058 | 1.42 ± 0.045 | 0.6446 ± 0.0029
GACUGA | 0.742 ± 0.053 | 1.94 ± 0.072 | 1.763 ± 0.011 | 0.639 ± 0.17
CACCAC | 0.232 ± 0.012 | 1.92 ± 0.056 | 1.81 ± 0.063 | 0.406 ± 0.036
UACUUU | 0.0654 ± 0.07 | 1.97 ± 0.038 | 1.921 ± 0.0072 | 0.288 ± 0.041
GACCUG | 0.408 ± 0.074 | 1.887 ± 0.0022 | 1.52 ± 0.018 | 0.608 ± 0.095
CACGUA | 0.4515 ± 0.0024 | 1.9 ± 0.016 | 1.784 ± 0.0067 | 0.594 ± 0.022
UACCAG | 0.0403 ± 0.078 | 1.87 ± 0.015 | 1.589 ± 0.0032 | 0.0509 ± 0.085
UACCAA | -0.105 ± 0.11 | 1.92 ± 0.036 | 1.838 ± 0.011 | -0.235 ± 0.035
GAGCGC | 0.507 ± 0.012 | 1.89 ± 0.026 | 1.55 ± 0.017 | 0.556 ± 0.09
GAGCGG | -0.363 ± 0.054 | 1.64 ± 0.037 | 1.21 ± 0.073 | 0.0659 ± 0.25
GAGCGA | 0.291 ± 0.062 | 1.89 ± 0.03 | 1.497 ± 0.0043 | 0.54 ± 0.037
UAGAGU | 0.11 ± 0.061 | 1.74 ± 0.09 | 1.21 ± 0.04 | 0.536 ± 0.099
UAGAGA | -0.0593 ± 0.041 | 1.9 ± 0.051 | 1.39 ± 0.036 | 0.431 ± 0.029
UAGAGG | 0.0918 ± 0.042 | 1.75 ± 0.038 | 1.21 ± 0.03 | 0.552 ± 0.011
GACUUG | 0.475 ± 0.072 | 1.84 ± 0.054 | 1.5 ± 0.034 | 0.228 ± 0.36
CAGAAA | 0.22 ± 0.05 | 1.874 ± 0.00091 | 1.58 ± 0.062 | 0.32 ± 0.027
CAGAAC | 0.442 ± 0.066 | 1.884 ± 0.0072 | 1.73 ± 0.039 | 0.407 ± 0.016
